B1: 1′DelAl PR4 (designed binder)
chain: EVVAATPTSLLISWRHPHFPTRYYRITYGETGGNSPVQEFTVPLQPPTATISGLKPGVDYTITGYAVTVAQNDHELLTPISINYRT
notes: Del 1-8
B2: 2′Del B5 PR4 (designed binder)
chain: EVVAATPTSLLISWRHPHFPTRYYRITYGETGGNSPVQEFTVPLQPPTATISGLKPGVDYTITGYAVTAGRHDHELIIPISINYRT
notes: Del 1-8
B3: 1′DelF3 PR4 (designed binder)
chain: EVVAATPTSLLISWRHPHFPTRYYRITYGETGGNSPVQEFTVPLQPPTATISGLKPGVDYTITGYAVTMAQNDHKLFTPISINYRT
notes: Del 1-8
B4: 1′Del G10 PR4 (designed binder)
chain: EVVAATPTSLLISWRHPHFPTRYYRITYGETGGNSPVQEFTVPLQPPTATISGLKPGVDYTITGYAVTMAQNGHKLMTPISINYRT
notes: Del 1-8
B5: 2′Del D10 PR4 (designed binder)
chain: EVVAATPTSLLISWRHPHFPTRYYRITYGETGGNSPVQEFTVPLQPPTATISGLKPGVDYTITGYAVTLADNARELLTPISINYRT
notes: Del 1-8
B6: 1′DelD1 PR4 (designed binder)
chain: EVVAATPTSLLISWRHPHFPTRYYRITYGETGGNSPVQEFTVPLQPPTATISGLKPGVDYTITGYAVTVTQNDHELLTPISINYRT
notes: Del 1-8
B7: 2′Del C8 PR4 (designed binder)
chain: EVVAATPTSLLISWRHPHFPTRYYRITYGETGGNSPVQEFTVPLQPPTATISGLKPGVDYTITGYAVTTAHNGHELLTPISINYRT
notes: Del 1-8
B8: 1′DelD5 PR4 (designed binder)
chain: EVVAATPTSLLISWRHPHFPTRYYRITYGETGGNSPVQEFTVPLQPPTATISGLKPGVDYTITGYAVTVGQNHHELFTPISINYRT
notes: Del 1-8
B9: 2′Del D5 PR4 (designed binder)
chain: EVVAATPTSLLISWRHPHFPTRYYRITYGETGGNSPVQEFTVPLQPPTATISGLKPGVDYTITGYAVTVAWNDHMLMTPISINYRT
notes: Del 1-8
B10: 2′Del E5 PR4 (designed binder)
chain: EVVAATPTSLLISWRHPHFPTRYYRITYGETGGNSPVQEFTVPLQPPTATISGLKPGVDYTITGYAVTEGLNDHELIIPISINYRT
notes: Del 1-8
B11: 1′DelE7 PR4 (designed binder)
chain: EVVAATPTSLLISWRHPHFPTRYYRITYGETGGNSPVQEFTVPLQPPTATISGLKPGVDYTITGYAVTVAQNGHELFTPISINYRT
notes: Del 1-8
B12: 2′Del F7 PR4 (designed binder)
chain: EVVAATPTSLLISWRHPHFPTRYYRITYGETGGNSPVQEFTVPLQPPTATISGLKPGVDYTITGYAVTLGLRDRELFVPISINYRT
notes: Del 1-8
B13: 2′Del D3 PR4 (designed binder)
chain: EVVAATPTSLLISWRHPHFPTRYYRITYGETGGNSPVQEFTVPLQPPTATISGLKPGVDYTITGYAVTSGLNDRVLFIPISINYRT
notes: Del 1-8
B14: 2′Del E6 PR4 (designed binder)
chain: EVVAATPTSLLISWRHPHFPTRYYRITYGETGGNSPVQEFTVPLQPPTATISGLKPGVDYTITGYAVTMGKNGHELLTPISINYRT
notes: Del 1-8
B15: 2′Del B3 PR4 (designed binder)
chain: EVVAATPTSLLISWRHPHFPTRYYRITYGETGGNSPVQEFTVPLQPPTATISGLKPGVDYTITGYAVTDAPNGRELMVPISINYRT
notes: Del 1-8
B16: 1′DelH12 PR4 (designed binder)
chain: EVVAATPTSLLISWRHPHFPTRYYRITYGETGGNSPVQEFTVPLQPPTATISGLKPGVDYTITGYAVTVAQNERELFTPISINYRT
notes: Del 1-8
B17: 2′Del C5 PR4 (designed binder)
chain: EVVAATPTSLLISWRHPHFPTRYYRITYGETGGNSPVQEFTVPLQPPTATISGLKPGVDYTITGYAVTPGHNDHELMVPISINYRT
notes: Del 1-8
B18: 1′DelE2 PR4 (designed binder)
chain: EVVAATPTSLLISWRHPHFPTRYYRITYGETGGNSPVQEFTVPLQPPTATISGLKPGVDYTITGYAVTVGQNDHELLTPISINYRT
notes: Del 1-8
B19: 2′Del C11 PR4 (designed binder)
chain: EVVAATPTSLLISWRHPHFPTRYYRITYGETGGNSPVQEFTVPLQPPTATISGLKPGVDYTITGYAVTAGLNEHELLIPISINYRT
notes: Del 1-8
B20: 1′DelA2 PR4 (designed binder)
chain: EVVAATPTSLLISWRHPHFPTRYYRITYGETGGNSPVQEFTVPLQPPTATISGLKPGVDYTITGYAVTVAQNGHQLFTPISINYRT
notes: Del 1-8
B21: 1′DelE6 PR4 (designed binder)
chain: EVVAATPTSLLISWRHPHFPTRYYRITYGETGGNSPVQEFTVPLQPPTATISGLKPGVDYTITGYAVTLAQNDRELLTPISINYRT
notes: Del 1-8
B22: 2′Del B4 PR4 (designed binder)
chain: EVVAATPTSLLISWRHPHFPTRYYRITYGETGGNSPVQEFTVPLQPPTATISGLKPGVDYTITGYAVTSGHNGHEVMTPISINYRT
notes: Del 1-8
B23: 2′Del C6 PR4 (designed binder)
chain: EVVAATPTSLLISWRHPHFPTRYYRITYGETGGNSPVQEFTVPLQPPTATISGLKPGVDYTITGYAVTMGFMAHELMVPISINYRT
notes: Del 1-8
B24: 2′Del C1 PR4 (designed binder)
chain: EVVAATPTSLLISWRHPHFPTRYYRITYGETGGNSPVQEFTVPLQPPTATISGLKPGVDYTITGYAVTAGLDEHELLIPISINYRT
notes: Del 1-8
B25: 2′Del F5 PR4 (designed binder)
chain: EVVAATPTSLLISWRHPHFPTRYYRITYGETGGNSPVQEFTVPLQPPTATISGLKPGVDYTITGYAVTLVHNDRELLTPISINYRT
notes: Del 1-8
B26: 1′DelD2 PR4 (designed binder)
chain: EVVAATPTSLLISWRHPHFPTRYYRITYGETGGNSPVQEFTVPLQPPTATISGLKPGVDYTITGYAVTVAKNDHELLTPISINYRT
notes: Del 1-8
B27: 1′DelH10 PR4 (designed binder)
chain: EVVAATPTSLLISWRHPHFPTRYYRITYGETGGNSPVQEFTVPLQPPTATISGLKPGVDYTITGYAVTFAQNDHELLTPISINYRT
notes: Del 1-8
B28: 2′Del A2 PR4 (designed binder)
chain: EVVAATPTSLLISWRHPHFPTRYYRITYGETGGNSPVQEFTVPLQPPTATISGLKPGVDYTITGYAVTGGRNGHTLLTPISINYRT
notes: Del 1-8
B29: 2′Del A11 PR4 (designed binder)
chain: EVVAATPTSLLISWRHPHFPTRYYRITYGETGGNSPVQEFTVPLQPPTATISGLKPGVDYTITGYAVTEDIRVLWLNTTISINYRT
notes: Del 1-8
B30: 2′Del E3 PR4 (designed binder)
chain: EVVAATPTSLLISWRHPHFPTRYYRITYGETGGNSPVQEFTVPLQPPTATISGLKPGVDYTITGYAVTLGPYEHELLTPISINYRT
notes: Del 1-8
B31: 2′Del F1 PR4 (designed binder)
chain: EVVAATPTSLLISWRHPHFPTRYYRITYGETGGNSPVQEFTVPLQPPTATISGLKPGVDYTITGYAVTRDQYEHELLTPISINYRT
notes: Del 1-8
B32: 1′DelH5 PR4 (designed binder)
chain: EVVAATPTSLLISWRHPHFPTRYYRITYGETGGNSPVQEFTVPLQPPTATISGLKPGVDYTITGYAVTVAQNDRELFTPISINYRT
notes: Del 1-8
B33: 2′Del B2 PR4 (designed binder)
chain: EVVAATPTSLLISWRHPHFPTRYYRITYGETGGNSPVQEFTVPLQPPTATISGLKPGVDYTITGYAVTTGWNGNELFTPISINYRT
notes: Del 1-8
B34: 2′Del D1 PR4 (designed binder)
chain: EVVAATPTSLLISWRHPHFPTRYYRITYGETGGNSPVQEFTVPLQPPTATISGLKPGVDYTITGYAVTLEQNDRVLLTPISINYRT
notes: Del 1-8

Molecular target: T1, human vascular endothelial growth factor receptor-2 Fc chimera (KDR-Fc) (human, UniProt P35968 20-764)
T1 construct: range 1-764; also called human VEGFR-2; VEGF-R2-Fc; not shown: human IgG1 Fc
T1 sequence (P35968 20-764 limits assumed, change not shown, form in doubt): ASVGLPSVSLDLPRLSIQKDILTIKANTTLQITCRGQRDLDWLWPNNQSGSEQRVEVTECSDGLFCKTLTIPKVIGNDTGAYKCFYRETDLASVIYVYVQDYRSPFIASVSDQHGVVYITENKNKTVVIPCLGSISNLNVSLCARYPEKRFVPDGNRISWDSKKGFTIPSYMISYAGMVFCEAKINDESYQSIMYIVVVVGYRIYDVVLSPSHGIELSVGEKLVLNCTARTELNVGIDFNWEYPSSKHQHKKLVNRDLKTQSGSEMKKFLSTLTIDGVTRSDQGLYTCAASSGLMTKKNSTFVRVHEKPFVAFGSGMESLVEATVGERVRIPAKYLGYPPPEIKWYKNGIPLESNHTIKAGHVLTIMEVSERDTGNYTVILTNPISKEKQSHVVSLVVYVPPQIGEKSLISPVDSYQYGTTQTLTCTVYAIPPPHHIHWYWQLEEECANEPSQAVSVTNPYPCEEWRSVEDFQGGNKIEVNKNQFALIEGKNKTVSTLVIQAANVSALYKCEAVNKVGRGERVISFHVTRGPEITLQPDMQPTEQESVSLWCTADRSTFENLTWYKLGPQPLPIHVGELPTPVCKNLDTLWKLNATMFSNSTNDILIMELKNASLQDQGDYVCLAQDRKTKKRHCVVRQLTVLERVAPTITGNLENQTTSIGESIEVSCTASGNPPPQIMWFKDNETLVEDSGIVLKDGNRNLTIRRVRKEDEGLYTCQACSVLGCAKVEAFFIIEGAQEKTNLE
Test: radioactive equilibrium binding, 1 nM KDR-Fc
Experimental: To prepare ³⁵S-labeled binding proteins for analysis, mRNA was prepared as described above for RNA-protein fusion production but the linker ligation step was omitted. The mRNA was expressed using rabbit reticulocyte lysate translation kit (Ambion) in the presence of ³⁵S-labeled Met at 30° C. for 1 hour. Expressed protein was purified on M2-agarose Flag beads (Sigma) as described above. This procedure produced the encoded protein without the nucleic acid tail. In a direct binding assay, VEGF-R2-Fc fusions in concentrations ranging from 0 to 200 nM were added to a constant concentration of the purified protein (0.2 or 0.5 nM) and incubated at 30° C. for 1 hour in buffer B. The receptor-binder complexes were captured using Protein A magnetic beads for another 10 minutes at room temperature using a Kingfisher™ The beads were washed with six reaction volumes of buffer B. The protein was eluted from the beads with 100 μL of 0.1 M KOH. […] of the reaction mixture and elution were dried onto a LumaPlate-96 (Packard) and the amount of ³⁵S on the plate was measured using a TopCount NXT instrument (Packard). The amount of fibronectin-based scaffold protein bound to the target was estimated as a percent of radioactivity eluted from Protein A magnetic beads compare to radioactivity in the reaction mixture. Nonspecific binding of fibronectin-based scaffold proteins to the beads was determined by measuring binding in the absence of KDR-Fc and represented less than 1-2% of the input. Specific binding was obtained through subtraction of nonspecific binding from total binding. Data was analyzed using the GraphPad Prizm software (GraphPad Software, Inc, San Diego, Calif.), fitted using a one site, non-linear binding equation.

Binder | Binding to 1 nM KDR, % [%]
B1 | 14
B2 | 33
B3 | 16
B4 | 36
B5 | 34
B6 | 16
B7 | 15
B8 | 17
B9 | 18
B10 | 19
B11 | 22
B12 | 38
B13 | 38
B14 | 43
B15 | 17
B16 | 18
B17 | 26

Binder | Binding to 1 nM KDR, % [%]
B18 | 16
B19 | 34
B20 | 23
B21 | 24
B22 | 31
B23 | 34
B24 | 32
B25 | 22
B26 | 17
B27 | 17
B28 | 17
B29 | 16
B30 | 33
B31 | 20
B32 | 17
B33 | 29
B34 | 28

— patent US20140179896A1 (published 2014)
